Results from publication PMC8042453 (The Journal of Biological Chemistry, 2021).
Values belong to the binder of their own block, whether it stands above or below them.

Tests used:
[1] = target: T1, Nucleolin construct R1234G (aa 285–710) (human, UniProt P19338 285-710); assay: co-IP
[2] = target: T1, Nucleolin construct R1234G (aa 285–710); assay: flow cytometry on cells

T1 sequence (P19338 285-710, stated change not applied): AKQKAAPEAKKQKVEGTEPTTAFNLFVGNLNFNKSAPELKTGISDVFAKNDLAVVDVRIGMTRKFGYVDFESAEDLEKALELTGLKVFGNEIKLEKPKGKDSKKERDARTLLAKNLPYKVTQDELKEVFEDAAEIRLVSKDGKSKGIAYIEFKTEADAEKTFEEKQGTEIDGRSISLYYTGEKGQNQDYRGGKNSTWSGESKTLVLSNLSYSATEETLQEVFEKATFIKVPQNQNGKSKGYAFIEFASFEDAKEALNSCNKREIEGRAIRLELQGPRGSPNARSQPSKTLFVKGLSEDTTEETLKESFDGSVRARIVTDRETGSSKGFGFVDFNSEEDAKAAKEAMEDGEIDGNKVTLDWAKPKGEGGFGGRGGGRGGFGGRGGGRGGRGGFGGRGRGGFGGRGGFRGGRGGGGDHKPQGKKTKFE

binding result [1]: binds
B1: C1QTNF4 (aa 17–329, full-length) (ligand)
chain: not shown

binding result [2]: binds
B2: GFP-C1QTNF4 (aa 17–329) (ligand)
chain: not shown
